Measurements reported in patent US7754684B2, “Macromolecular platinum chelates” (priority 2003, dated 2010).

How the values were obtained:
[1] = Platinum release from PBS (percent small Pt species released from polymer-platinum conjugate); assay type: physicochemical
[2] = as above; assay type: physicochemical; conditions: PBS at 37° C.
Description: The compound tested comprised a poly(N-(2-hydroxypropyl)methacrylamide (90%)-co-(N-(linker)-Pt complex)methacrylamide (10%)) polymer and either cis-diammine or 1R,2R-diaminocyclohexane (DACH) as the stable ligands/chelate of the Pt complex. The leaving-ligand comprised an N,O bidentate ligand with amidoaspartate (Asp) or amidomalonate (Ama).
The percent of small platinum species released over time was measured by dissolving about 30 mg of the polymer-platinum conjugate in 15 mL of phosphate buffered saline (10 mM phosphate, 123 mM Cl^−) and incubating the solution at 37° C. in a water bath. At indicated times, 2.0 mL aliquots were transferred to a centrifugal filter with a 3 kDa nominal molecular weight cutoff (Centricon YM-3 from Millipore) and spun until >1.5 mL of filtrate had accumulated. The timed filtrates and the original solution were analyzed for platinum by ICP-OES. The percent of small Pt species released was determined using the formula: ((ppm Pt in filtrate)/(ppm Pt in stock solution)) X 100.

[3] = Table 2. Comparison of representative compounds C1-C13 of this invention versus carboplatin.
Description: Table printed on a drawing sheet, FIGURE 15
Title: Table 2. Comparison of representative compounds C1-C13 of this invention versus carboplatin.
The patent's description of the figure: FIG. 15 is Table 2.
First reader's note: Relative TGI is an in-vivo tumor growth inhibition class relative to carboplatin; C2, C3 and C5 are printed with 'Ama-Pt' (hyphen) instead of 'Ama=Pt'.

[4] = Maximum tolerated dosage used in the B16F10 murine melanoma model; assay type: in vivo, C57BL/6 mice; conditions: mice
Description: C57BL/6 mice (10 animals per compound treatment group) were dosed with the amount of compound indicated. The mice were inoculated subcutaneously in the right rear flank with 10^6 B16F10 murine melanoma cells. Beginning at day 6 post-implantation, tumor size was measured daily using calipers under light Methfurane anesthesia. The mass of the resulting tumor in milligrams was estimated using the formula W^2(L)/2 where W is the length of the shorter tumor dimension and L is the length of the longer dimension. Treatment was commenced when the tumor was 50-75 mg or larger. Each animal was followed individually so that Day 1 of treatment for each animal was the day on which that animal's tumor reached the appropriate size. The test compounds were administered […] through the tail vein using a volume of 0.2-0.3 mL per 20 grams body weight. The animals were observed and weighed daily prior to dosing to establish the proper dosing volume for that day and such was continued until the end of the study. […]

[5] = tested on: B16F10 murine melanoma cells; experiment: B16F10 murine melanoma tumor growth inhibition in C57BL/6 mice; assay type: in vivo; conditions: each compound at its MTD (20 mgPt/kg vs. 50 mgPt/Kg), groups of ten mice
Description: C57BL/6 mice (10 animals per compound treatment group) were dosed with the amount of compound indicated. The mice were inoculated subcutaneously in the right rear flank with 10^6 B16F10 murine melanoma cells. Beginning at day 6 post-implantation, tumor size was measured daily using calipers under light Methfurane anesthesia. The mass of the resulting tumor in milligrams was estimated using the formula W^2(L)/2 where W is the length of the shorter tumor dimension and L is the length of the longer dimension. Treatment was commenced when the tumor was 50-75 mg or larger. Each animal was followed individually so that Day 1 of treatment for each animal was the day on which that animal's tumor reached the appropriate size. The test compounds were administered […] through the tail vein using a volume of 0.2-0.3 mL per 20 grams body weight. The animals were observed and weighed daily prior to dosing to establish the proper dosing volume for that day and such was continued until the end of the study.
Using the above procedure, a number of exemplary compounds of this invention were compared to carboplatin. […]

| Substance | % Pt Release ([2]; 3 h) [%] | % Pt Release ([2]; 24 h) [%] | also measured |
| --- | --- | --- | --- |
| poly(HPMA)-GG-Asp=Pt(NH3)2 [54a] | – | – | Pt release in PBS at 38.C ([1]; 3 hr): 3.92%; Pt release in PBS at 38.C ([1]; 24 hr): 11.02% |
| poly(HPMA)-GFLG-C3-Sulf-Ama=Pt(NH3)2 [75a] | 3.02 | 5.44 | – |
| poly(HPMA)-GFLG-Asp=Pt(NH3)2 [60a] | 1.95 | 5.85 | – |
| poly(HPMA)-GGG-Ama=Pt=1R, 2R-DACH [C13] [listing 1 of 2 here] | – | – | Pt release (% at 24 h) [3]: 3.6 % at 24 h |
| poly(HPMA)-GG-Ama=Pt(NH3)2 [53a] | 1.4 | 4.6 | – |
| p(HMPA)-GFLG-Ama=Pt=DACH [C2] [listing 1 of 2 here] | – | – | Pt release (% at 24 h) [3]: 2.6 % at 24 h |
| Poly(HPMA)-GG-Asp=Pt=1R,2R-DACH [54b] | 3.20 | 10.68 | – |
| p(HMPA)-GFLG-Ama=Pt=DACH [C2] [listing 2 of 2 here] | – | – | maximum tolerated dosage (MTD) [4]: 50 mgPt/kg |
| poly(HPMA)-GG-Ama=Pt=1R,2R-DACH [53b] | 1.3 | 5.5 | – |
| poly(HPMA)-GGGG-Ama=PtDACH [57b] | 0.972 | 3.173 | – |
| poly(HPMA)-GGG-Ama=Pt=1R, 2R-DACH [C13] [listing 2 of 2 here] | – | – | delay in tumor growth, C13 versus C2 (FIG. 14) [5]: prolonged delay in tumor growth compared to compound C2; maximum tolerated dosage (MTD) [4]: 20 mgPt/kg |
